Assays:
[1] = system: db/db mice; test: Blood glucose of db/db mice after injection of test substance; format: in vivo, mouse; details: for anti-hyperglycemic effect (blood glucose): peripheral/i.v. injection, db/db, dose not stated; for active duration of anti-hyperglycemic effect in vivo: i.v. injection, hyperglycemic db/db mice
[2] = biological target: plasmin (Homo sapiens, UniProt P00747); test: Incubation with plasmin in vitro (proteolysis); format: biochemical; details: incubated with plasmin in vitro
plasmin, sequence (P00747 581-810 limits assumed, species assumed): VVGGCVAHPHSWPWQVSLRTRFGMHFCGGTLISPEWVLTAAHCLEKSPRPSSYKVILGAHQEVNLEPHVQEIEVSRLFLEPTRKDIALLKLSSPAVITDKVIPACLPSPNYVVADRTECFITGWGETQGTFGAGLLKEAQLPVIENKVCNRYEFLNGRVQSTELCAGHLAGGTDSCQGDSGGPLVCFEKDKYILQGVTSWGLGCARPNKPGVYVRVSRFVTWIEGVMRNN
plasmin, sequence (P00747 97-580 partner limits assumed, species assumed): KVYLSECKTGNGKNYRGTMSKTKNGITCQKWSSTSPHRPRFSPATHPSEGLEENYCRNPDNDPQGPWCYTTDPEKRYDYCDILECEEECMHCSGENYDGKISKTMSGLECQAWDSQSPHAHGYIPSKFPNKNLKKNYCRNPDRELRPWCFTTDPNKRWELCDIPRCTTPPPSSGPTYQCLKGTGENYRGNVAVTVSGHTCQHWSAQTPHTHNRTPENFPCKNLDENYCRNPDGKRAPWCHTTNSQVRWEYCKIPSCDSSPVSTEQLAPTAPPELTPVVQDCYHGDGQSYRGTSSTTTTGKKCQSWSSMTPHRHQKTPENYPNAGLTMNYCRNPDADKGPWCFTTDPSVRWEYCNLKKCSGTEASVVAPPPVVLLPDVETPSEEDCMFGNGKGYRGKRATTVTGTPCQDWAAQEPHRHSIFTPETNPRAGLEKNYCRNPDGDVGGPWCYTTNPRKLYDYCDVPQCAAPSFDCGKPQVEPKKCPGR
From the text: The recovery of hypothalamic nesfatin-1 in plg^−/−lepr^−/− was consistent to its normalization in food intake and body weight. Fasted mice always had less nesfatin-1 in hypothalamus than their freely feeding counterparties (FIG. 2b). Furthermore, plasminogen deficiency provided a unique approach to study the chronic effect of elevated nesfatin-1 in hyperphagic obese animals, which was impossible for the i.c.v. or i.p. administration due to the short half-time of nesfatin-1. Consequently, agrp and npy were found reduced in plg^−/−lepr^−/−, while pomc was elevated compared with plg^+/+lepr^−/− (FIG. 3), contradicting to the previous report that i.c.v. nesfatin-1 didn't alter the expression of pomc, npy and agrp. Consistent to the present finding, the same group reported the up-regulation of pomc by i.p. nesfatin-1 in NTS recently.
Carefully examining the amino acid sequence of pladin (SEQ ID NO: 23), it has several putative cleavage sites by plasmin (FIG. 11A).

Molecule: ADIEEIRSGR LSQELDLVSH (ADIEEIRSGRLSQELDLVSH; A synthetic peptide which was the C-terminal portion of pladin) [SEQ ID NO:22, synthetic 20 amino acids peptide, C-terminal portion of pladin]
- anti-hyperglycemic activity, fold less than rPladin ([1]; i.v., db/db mice): more than 3 fold
- anti-hyperglycemic effect (blood glucose) [1]: anti-hyperglycemic

Molecule: ANAEDIKSGKLSQELDFVSH (amino acids by MALDI-TOF/TOF with Trypsic Peptides) [SEQ ID NO:24, synthetic 20 amino acids peptide, a portion of NUCB1]
- anti-hyperglycemic effect (blood glucose) [1]: anti-hyperglycemic

B1: VPVDRAAPPQEDSQATETPDTGLYYHRYLQEVINVLETDGHFREKLQAANAEDIKSGKLSQELDFVSHNVRTKLDELK (protein)
chain: VPVDRAAPPQEDSQATETPDTGLYYHRYLQEVINVLETDGHFREKLQAANAEDIKSGKLSQELDFVSHNVRTKLDELK
modifications: amino acids recombinant peptide of NUCB1
notes: 78 amino acids recombinant peptide, N-terminal portion of NUCB1
- molar anti-hyperglycemic activity, fold higher than rPladin or nesfatin-1 ([1]; i.v., db/db mice, within 3 hours): at least 2 fold
- active duration, fold less than rPladin or nesfatin-1 ([1]; in vivo): at least 2 fold
- anti-hyperglycemic effect (blood glucose) [1]: anti-hyperglycemic

B2: TKVHNTEPVENARIEPPDTGLYYDEYAALETDPHFREKLQKADIEEIRSGRLSQELDLVSHKVR (protein)
chain: TKVHNTEPVENARIEPPDTGLYYDEYAALETDPHFREKLQKADIEEIRSGRLSQELDLVSHKVR
modifications: amino acid sequence of Mutant A92
- active duration of anti-hyperglycemic effect in vivo [1]: > 12 h

B3: A4: pladin mutant A4 (Lys28→Ala) (protein)
peptide: TKVHNTEPVENARIEPPDTGLYYDEYLAQVIEVLETDPHFREKLQKADIEEIRSGRLSQELDLVSHKVR
- proteolysis by plasmin [2]: resistant to plasmin proteolysis
- active duration of anti-hyperglycemic effect in vivo [1]: 18 h

B4: TKVHNTEPVENARIEPPDTGLYYDEYAKAAAAALETDPHFREKLQKADIEEIRSGRLSQELDLVSHKVR (protein)
chain: TKVHNTEPVENARIEPPDTGLYYDEYAKAAAAALETDPHFREKLQKADIEEIRSGRLSQELDLVSHKVR
modifications: amino acid sequence of Mutant A90
- active duration of anti-hyperglycemic effect in vivo [1]: > 24 h

B5: acetylated rPladin: rPladin acetylated with N-acetylimidazole; three Tyr and three Lys residues modified (protein)
peptide: TKVHNTEPVENARIEPPDTGLYYDEYLKQVIEVLETDPHFREKLQKADIEEIRSGRLSQELDLVSHKVR
modifications: also: three Tyr and three Lys acetylated with N-acetylimidazole
notes: rPladin acetylated with N-acetylimidazole; three Tyr and three Lys residues modified
- proteolysis by plasmin [2]: resistant to the proteolysis by plasmin
- active duration of anti-hyperglycemic effect in vivo [1]: 12 h
- anti-hyperglycemic activity compared with reference peptide ([1]; i.v., db/db mice): unchanged

B6: A5: pladin mutant A5 (Lys13→Ala as printed; Arg13 in sequence) (protein)
peptide: TKVHNTEPVENAAIEPPDTGLYYDEYLKQVIEVLETDPHFREKLQKADIEEIRSGRLSQELDLVSHKVR
- proteolysis by plasmin [2]: resistant to plasmin proteolysis
- active duration of anti-hyperglycemic effect in vivo [1]: 12 h

B7: TKVHNTEPVENARIEPPDTGLYYDEYSAAAALETDPHFREKLQKADIEEIRSGRLSQELDLVSHKVR (protein)
chain: TKVHNTEPVENARIEPPDTGLYYDEYSAAAALETDPHFREKLQKADIEEIRSGRLSQELDLVSHKVR
modifications: amino acid sequence of Mutant A91
- active duration of anti-hyperglycemic effect in vivo [1]: > 24 h

— US8541367B2, “Plasma anti-diabetic NUCB2 peptide (pladin) and uses thereof” (Landing Biotech, Inc., priority 2009, dated 2013)
